{
  "source": "patent US20220098328A1",
  "about": "“ANTIBODIES TO M(H)DM2/4 AND THEIR USE IN DIAGNOSING AND TREATING CANCER” (NomoCan Pharmaceuticals LLC, priority 2017, published 2022)",
  "key": {"[1]": {"tested_on": "human, murine, rabbit protein", "set-up": "key: H—binds to human protein; M—binds to murine protein; R—binds to rabbit protein", "settings": "cited from earlier work"}, "[2]": {"tested_on": "human pancreatic cancer MIA PaCa-2 cells", "assay": "Cell-ELISA on intact cells", "format": "cell-based", "description": "(§1) Cell-ELISA Methodology: 8,000-10,000 cells/well of a 96-well microplate were grown overnight. The next day, unbound cells were washed off with sterile 1×PBS. The cells in each well were fixed with freshly prepared 4% buffered paraformaldehyde (pH 7.2) for 1 hour followed by 3 washes with 1×PBS. The wells were then blocked with 5% BSA in PBS (100 μl/well) for 2 hours at room temperature. Microplate wells were then washed 5 times with 300 μl of ice cold 1×PBS. MAbs NMC-103, NMC-204 or NMC-303 at 1 μg/mL in 1% BSA/PBS were then incubated with various cancer or normal untransformed cells for 2 hours at room temperature. Wells were then washed with 300 μl of ice-cold 1×PBS for 5 times and corresponding secondary antibody HRP-GaM F(ab′)2 diluted 1:2500 or 1:5000 in PBS with 1% BSA were added at 100 μl/well for 1 hour at room temperature followed by washing 5 times with 300 μl of ice-cold 1×PBS. TMB Substrate Solution (1-Step™ Ultra TMB-ELISA, ThermoFisher, Cat. No. 34028) was then added at 50 μL to each microplate well and incubated at room temperature for 30 minutes. The reaction was stopped by addition of 50 μL of stop solution (ThermoFisher, Cat. No. SS04) to each well and absorbance of each well was measured at OD450 nm. The absorbance value of each experimental well was corrected for the absorbance value obtained from wells treated with isotype-identical mAbs included in each experiment. The results are thus expressed as “relative binding”.\n(§2) In a 96-well microplate, 15,000 cells/well were cultured overnight. The next day, unbound cells were washed off with sterile 1×PBS. The cells in each well were fixed with freshly prepared 4% buffered paraformaldehyde (pH 7.2) for 1 hour, followed by 3 washes with 1×PBS. The wells were then blocked with 5% BSA in PBS (100 μl/well) for 2 hours at room temperature. Microplate wells were then washed 5 times with 300 μl of ice cold 1×PBS. Monoclonal antibodies NMC-H103 (VH4/VK3) or NMC-C303 at 5 μg/mL in 1% BSA/PBS were then incubated with various cancer cells for 2 hours at room temperature. Wells were then washed with 300 μl of ice-cold 1×PBS for 5 times and corresponding secondary antibody HRP-GaH F(ab′)2 diluted 1:2000 or 1:4000 in PBS with 1% BSA were added at 100 μl/well for 1 hour at room temperature followed by washing 5 times with 300 μl of ice-cold 1×PBS. TMB Substrate Solution (1-Step™ Ultra TMB-ELISA, ThermoFisher, Cat. No. 34028) was then added at 50 μL to each microplate well and incubated at room temperature for 30 minutes. The reaction was stopped by addition of 50 μL of stop solution (ThermoFisher, Cat. No. SS04) to each well and absorbance of each well was measured at OD450 nm. The absorbance value of each experimental well was corrected for the absorbance value obtained from wells treated with isotype-identical mAbs included in each experiment."}, "[3]": {"tested_on": "plasma membrane M(H)DM2/4", "assay": "Plasma membrane M(H)DM2/4 after treatment of cells with chemotherapeutic agents (in vitro)", "format": "cell-based", "settings": "data not shown"}, "[4]": {"target": "E-Cadherin on intact mouse LL/2 cancer cells (mouse) (UniProt P09803)", "sequence (P09803 157-884)": "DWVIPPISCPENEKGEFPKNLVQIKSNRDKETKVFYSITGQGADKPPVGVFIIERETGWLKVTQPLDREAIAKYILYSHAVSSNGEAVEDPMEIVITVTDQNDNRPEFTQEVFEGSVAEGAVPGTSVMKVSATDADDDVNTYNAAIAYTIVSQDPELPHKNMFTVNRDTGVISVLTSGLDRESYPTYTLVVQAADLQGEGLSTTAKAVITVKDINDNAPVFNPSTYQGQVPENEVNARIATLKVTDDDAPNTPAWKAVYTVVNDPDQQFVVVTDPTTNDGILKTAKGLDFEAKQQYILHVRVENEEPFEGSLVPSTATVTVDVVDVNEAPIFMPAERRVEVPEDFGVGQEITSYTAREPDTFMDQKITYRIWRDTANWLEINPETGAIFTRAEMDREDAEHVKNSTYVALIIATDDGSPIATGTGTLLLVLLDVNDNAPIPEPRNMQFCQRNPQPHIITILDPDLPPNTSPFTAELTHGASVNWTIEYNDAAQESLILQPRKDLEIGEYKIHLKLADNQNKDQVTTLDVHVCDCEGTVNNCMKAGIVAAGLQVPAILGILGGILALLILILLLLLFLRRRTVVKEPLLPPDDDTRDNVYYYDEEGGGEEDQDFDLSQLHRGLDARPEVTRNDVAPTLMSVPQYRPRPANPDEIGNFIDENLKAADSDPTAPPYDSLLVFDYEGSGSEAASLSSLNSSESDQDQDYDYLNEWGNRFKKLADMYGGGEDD", "assay": "cell-based ELISA on intact LL/2 cells, 5 µg/mL, OD450"}, "[5]": {"tested_on": "human ovarian cancer OVCAR-3 cells", "assay": "Cell-ELISA on intact cells", "format": "cell-based", "settings": "OVCAR-3 (resistant to adriamycin, melphalan, cisplatin); mAb 1 μg/mL; fixed, non-permeabilized cells", "description": "as §1, §2"}, "[6]": {"tested_on": "human breast cancer MCF-7 cells", "assay": "Cell-ELISA on intact cells", "format": "cell-based", "settings": "MCF-7; mAb 1 μg/mL; fixed, non-permeabilized cells", "description": "as §1, §2"}, "[7]": {"tested_on": "mouse pancreatic Panc02 cells", "assay": "Cell-ELISA on intact cells", "format": "cell-based", "settings": "Panc02; mAb 1 μg/mL; fixed, non-permeabilized cells", "description": "as §1, §2"}, "[8]": {"tested_on": "human melanoma A2058 cells", "assay": "Cell-ELISA on intact cells", "format": "cell-based", "settings": "A2058; mAb 1 μg/mL; fixed, non-permeabilized cells", "description": "as §1, §2"}, "[9]": {"tested_on": "primary patient-derived human ovarian cancer OVCA4 cells", "assay": "Cell-ELISA on intact cells", "format": "cell-based", "settings": "OVCA4; mAb 1 μg/mL; fixed, non-permeabilized cells", "description": "as §1, §2"}, "[10]": {"tested_on": "mouse Lewis Lung LL/2 cells", "assay": "Cell-ELISA on intact cells", "format": "cell-based", "settings": "LL/2; mAb 1 μg/mL; fixed, non-permeabilized cells", "description": "as §1, §2"}, "[11]": {"tested_on": "mouse colon cancer MC-38 cells", "assay": "Cell-ELISA on intact cells", "format": "cell-based", "settings": "MC-38; mAb 1 μg/mL; fixed, non-permeabilized cells", "description": "as §1, §2"}, "[12]": {"tested_on": "normal human peripheral blood mononuclear cells (PBMCs)", "assay": "Cell-ELISA on intact cells", "format": "cell-based", "settings": "freshly isolated normal human PBMCs", "description": "as §1"}, "[13]": {"tested_on": "human uveal melanoma 92.1 cells", "assay": "Cell-ELISA on intact cells", "format": "cell-based", "settings": "mAb 1 μg/mL, fixed, non-permeabilized cells", "description": "as §1"}, "[14]": {"tested_on": "human triple negative breast cancer HCC1806 cells", "assay": "Cell-ELISA on intact cells", "format": "cell-based", "settings": "mAb 1 μg/mL, fixed, non-permeabilized cells", "description": "as §1"}, "[15]": {"target": "NMC-P3 peptide (SEQ ID NO:3), amino acids 475-491 of HDM2 (Homo sapiens, UniProt Q00987)", "assay": "Peptide-ELISA", "format": "binding", "settings": "5 μg/ml peptide on plate, OD 450 nm", "description": "Peptide-ELISA Methodology: 5 μg/ml of NMC-P1, NMC-P2 or NMC-P3 peptide antigen was dried onto a 96-well ELISA plate overnight. Plates were then blocked with 5% BSA in 1× phosphate-buffered saline (PBS) (100 μl/well) for 2 hours at room temperature. Microplate wells were then washed 5 times with 300 μl of ice cold 1×PBS. Appropriate dilutions of monoclonal antibodies NMC-103, NMC-204 or NMC-303 in 1% bovine serum albumin (BSA) in PBS solution were then incubated with their corresponding peptides (NMC-P1, NMC-P2 or NMC-P3, respectively) at room temperature. After 2 hours, wells were washed 5 times with 300 μl ice-cold PBS/well and 100 μl secondary antibody (HRP-labeled Goat anti-Mouse F(ab′)2 H&L cross-adsorbed secondary antibody (HRP-GaM F(ab′)2), ThermoFisher, Cat. No. A24524) diluted 1:2500 to 1:5000 in PBS-1% BSA solution were added and the incubation continued at room temperature. After 1 hour, the wells were washed again 5 times with 200 μl of ice-cold PBS and 50 μL of the TMB Substrate Solution (1-Step™ Ultra TMB-ELISA, ThermoFisher, Cat. No. 34028) were added to each well and color was allowed to develop for 30 minutes at room temperature. The reaction was stopped by addition of 50 μL of stop solution (ThermoFisher, Cat. No. SS04) to each well and absorbance of each well was read immediately for optical density (OD) at 450 nm."}, "[16]": {"target": "T1, recombinant HDM2 protein (GST tagged) (Homo sapiens, UniProt Q00987)", "T1 construct": "NMC-103, NMC-204 and NMC-303 reacted with the recombinant full-length HDM2 protein; purchased Abcam ab188727", "T1 sequence (Q00987 whole entry)": "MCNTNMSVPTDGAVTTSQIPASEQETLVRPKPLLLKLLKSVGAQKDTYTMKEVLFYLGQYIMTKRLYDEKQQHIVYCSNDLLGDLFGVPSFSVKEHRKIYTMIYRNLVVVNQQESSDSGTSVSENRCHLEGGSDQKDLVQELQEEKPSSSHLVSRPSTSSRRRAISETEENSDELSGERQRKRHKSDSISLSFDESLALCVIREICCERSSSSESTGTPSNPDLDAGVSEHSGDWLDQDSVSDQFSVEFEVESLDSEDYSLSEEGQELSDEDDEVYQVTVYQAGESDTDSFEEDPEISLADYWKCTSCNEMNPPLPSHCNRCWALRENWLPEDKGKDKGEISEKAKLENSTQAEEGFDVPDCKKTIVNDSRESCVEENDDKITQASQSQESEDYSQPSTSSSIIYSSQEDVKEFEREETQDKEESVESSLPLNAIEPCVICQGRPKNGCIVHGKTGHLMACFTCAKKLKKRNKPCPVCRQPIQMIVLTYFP", "assay": "Western blot (immunoblot)", "format": "binding", "settings": "1 μg/well protein, antibody 1 μg/ml; band at approximately 83 kD", "description": "Western Blot: As for immunoblots, 1 μg/well of recombinant HDM2 protein (GST tagged, Abcam, Cat. No. ab188727) was separated on 8-16% sodium dodecyl sulfate (SDS) polyacrylamide gel and proteins were then transferred to polyvinylidene difluoride (PVDF) membrane. The membrane was blocked with 5% milk followed by incubation with monoclonal antibody NMC-103, NMC-204 or NMC-303 at 1 μg/ml in 1% milk in PBS for 2 hours. The membrane was then washed ×3 times (10 minutes each) and incubated for 1 hour with corresponding HRP-conjugated secondary antibody (Goat anti-Mouse IgG (H&L), F(ab′)2 Frag Cross-adsorbed HRP (HRP-GaM F(ab′)2), ThermoFisher, Cat. No. A24524) diluted 1:5000 in 1% BSA-PBS. The membrane was then washed ×3 times and incubated with Pierce ECL Plus Western Blotting Substrate (ThermoFisher, Cat. No. #32132) for 10 min before developing on a LICOR Scanner."}},
  "data": [
    {"molecule": "Cytochrome C [reference compound]", "values": [
      {"measurement": "Species Reactivity", "setting": "[1]", "value": "H"},
      {"measurement": "binding to intact, EDTA-released MiaPaCa-2 cells, cell-ELISA", "setting": "[2]; EDTA 10 mmols, pH 7.2, 5 min, 37° C.", "value": "only minimal binding"}
    ]},
    {"molecule": "Nc1ccn([C@@H]2O[C@H](CO)[C@@H](O)C2(F)F)c(=O)n1", "note": "[Gemcitabine]", "values": [
      {"measurement": "plasma membrane M(H)DM2/4 level of treated cells", "setting": "[3]", "value": "increase in plasma membrane M(H)DM2/4"}
    ]},
    {"molecule": "CC(=O)O[C@H]1C(=O)[C@@]2(C)[C@H]([C@H](OC(=O)c3ccccc3)[C@]3(O)C[C@H](OC(=O)[C@H](O)[C@@H](NC(=O)c4ccccc4)c4ccccc4)C(C)=C1C3(C)C)[C@]1(OC(C)=O)CO[C@@H]1C[C@@H]2O", "note": "[Paclitaxel]", "values": [
      {"measurement": "plasma membrane M(H)DM2/4 level of treated cells", "setting": "[3]", "value": "increase in plasma membrane M(H)DM2/4"}
    ]},
    {"molecule": "E-cadherin G10 (SC-8426) (antibody)", "values": [
      {"measurement": "average OD reading", "setting": "[4]", "value": 1.49, "unit": "OD"}
    ]},
    {"molecule": "NMC-303: mouse monoclonal antibody of the IgM isotype that binds to NMC-P3 (SEQ ID NO:3); VH SEQ ID NO:40, VL SEQ ID NO:41 (antibody, V domains shown, mAb NMC-303 Heavy Chain Variable Region; mAb NMC-303 Light Chain Variable Region) VH: QVQLQQPGAELVKPGASVKLSCKASGYTFTSYYMYWVKQRPGQGLEWIGGINPRNGGTNFNEKFKNKATLTADKSSTTAYMQLSSLTSEDSAVYYCTRSGYYAMDYWGQGTSVTVSS VL: DIQMTQTTSSLSASLGDRVTISCRASQDISNFLNWYQQKPDGTVKLLIYYTSRLHSGVPSRFSGSGSGTDYSLTISNLEQEDIATYFCQQGNTLPRTFGGGTKLEIK", "values": [
      {"measurement": "relative binding (reactivity) to intact cells, cell-ELISA", "setting": "[2]; MIA PaCa-2, mAb 1 μg/mL, fixed, non-permeabilized cells", "value": "reactivity"},
      {"measurement": "binding to intact MIA PaCa-2 cells when competed with NMC-P3 peptide", "setting": "[2]; cell-ELISA peptide competition", "value": "competed"},
      {"measurement": "relative binding (reactivity) to intact cells, cell-ELISA", "setting": "[5]", "value": "reactivity"},
      {"measurement": "relative binding (reactivity) to intact cells, cell-ELISA", "setting": "[6]", "value": "reactivity"},
      {"measurement": "relative binding (reactivity) to intact cells, cell-ELISA", "setting": "[7]", "value": "reactivity"},
      {"measurement": "relative binding (reactivity) to intact cells, cell-ELISA", "setting": "[8]", "value": "reactivity"},
      {"measurement": "relative binding (reactivity) to intact cells, cell-ELISA", "setting": "[9]", "value": "reactivity"},
      {"measurement": "relative binding (reactivity) to intact cells, cell-ELISA", "setting": "[10]", "value": "reactivity"},
      {"measurement": "relative binding (reactivity) to intact cells, cell-ELISA", "setting": "[11]", "value": "reactivity"},
      {"measurement": "binding to intact normal cells, cell-ELISA", "setting": "[12]", "value": "virtually no binding"},
      {"measurement": "relative binding (reactivity) to intact cells, cell-ELISA", "setting": "[13]", "value": "reactivity"},
      {"measurement": "relative binding (reactivity) to intact cells, cell-ELISA", "setting": "[14]", "value": "reactivity"},
      {"measurement": "binding to NMC-P3 peptide", "setting": "[15]", "value": "bound"},
      {"measurement": "reactivity with recombinant full-length HDM2-GST protein (immunoblot)", "setting": "[16]", "value": "reacted"}
    ]}
  ]
}
